T1: Abp1, P15891
T1 sequence (P15891 535-592, looked up): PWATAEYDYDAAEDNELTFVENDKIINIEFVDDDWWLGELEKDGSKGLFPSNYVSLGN

T2: Bbc1, P47068
T2 sequence (P47068 1-78, looked up): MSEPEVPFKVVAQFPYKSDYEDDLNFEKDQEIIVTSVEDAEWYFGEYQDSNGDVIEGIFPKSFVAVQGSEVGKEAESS

T3: Boi1, P38041
T3 sequence (P38041 1-86, looked up): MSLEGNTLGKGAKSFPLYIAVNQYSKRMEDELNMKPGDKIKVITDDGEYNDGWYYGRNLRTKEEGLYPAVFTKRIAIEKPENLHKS

T4: Boi2, P39969
T4 sequence (P39969 32-116, looked up): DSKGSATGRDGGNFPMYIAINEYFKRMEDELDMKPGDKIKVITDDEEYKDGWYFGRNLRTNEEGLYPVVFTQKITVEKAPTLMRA

T5: Bud14, P27637
T5 sequence (P27637 247-328, looked up): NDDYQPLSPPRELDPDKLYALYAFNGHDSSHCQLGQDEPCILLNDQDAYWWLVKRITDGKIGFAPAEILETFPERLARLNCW

T6: Bzz1-1, P38822
T6 sequence (P38822 478-572, looked up): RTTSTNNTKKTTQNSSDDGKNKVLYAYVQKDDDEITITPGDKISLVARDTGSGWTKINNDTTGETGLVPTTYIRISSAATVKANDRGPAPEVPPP

T7: Bzz1-2, P38822
T7 sequence (P38822 568-633, looked up): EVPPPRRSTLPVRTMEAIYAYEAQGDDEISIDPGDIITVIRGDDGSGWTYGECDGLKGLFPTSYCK

T8: Cdc25, P04821
T8 sequence (P04821 50-136, looked up): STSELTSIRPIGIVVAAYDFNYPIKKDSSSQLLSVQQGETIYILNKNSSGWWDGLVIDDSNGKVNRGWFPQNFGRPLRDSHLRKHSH

T9: Cyk3, Q07533
T9 sequence (Q07533 1-83, looked up): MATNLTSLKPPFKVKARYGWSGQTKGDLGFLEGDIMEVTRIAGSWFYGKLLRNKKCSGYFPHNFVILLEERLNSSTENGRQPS

T10: Fus1, P11710
T10 sequence (P11710 432-512, looked up): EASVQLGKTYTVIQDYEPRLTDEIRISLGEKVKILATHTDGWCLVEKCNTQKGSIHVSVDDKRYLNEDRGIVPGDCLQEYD

T11: Hof1, Q05080
T11 sequence (Q05080 590-669, looked up): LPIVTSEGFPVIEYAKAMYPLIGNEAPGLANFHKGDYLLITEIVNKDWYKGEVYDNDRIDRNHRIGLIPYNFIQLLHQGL

T12: Hse1, P38753
T12 sequence (P38753 208-285, looked up): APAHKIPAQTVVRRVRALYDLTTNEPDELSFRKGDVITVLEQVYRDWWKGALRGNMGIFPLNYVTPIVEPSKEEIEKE

T13: Lsb1, P53281
T13 sequence (P53281 45-122, looked up): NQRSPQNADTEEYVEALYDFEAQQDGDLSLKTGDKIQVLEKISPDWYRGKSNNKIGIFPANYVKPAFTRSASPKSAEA

T14: Lsb3, P43603
T14 sequence (P43603 385-451, looked up): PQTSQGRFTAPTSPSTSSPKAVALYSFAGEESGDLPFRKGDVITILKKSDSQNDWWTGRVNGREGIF

T15: Lsb4, P32793
T15 sequence (P32793 402-468, looked up): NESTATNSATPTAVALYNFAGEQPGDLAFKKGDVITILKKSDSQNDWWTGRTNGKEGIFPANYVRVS

T16: Myo5, Q04439
T16 sequence (Q04439 1072-1160, looked up): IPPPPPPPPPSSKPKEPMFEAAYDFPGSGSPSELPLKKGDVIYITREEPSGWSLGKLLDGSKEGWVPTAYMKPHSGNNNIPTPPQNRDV

T17: Nbp2, Q12163
T17 sequence (Q12163 103-180, looked up): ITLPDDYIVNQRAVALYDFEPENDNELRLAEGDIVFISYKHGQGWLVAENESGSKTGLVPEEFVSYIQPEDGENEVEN

T18: Pex13, P80667
T18 sequence (P80667 295-386, looked up): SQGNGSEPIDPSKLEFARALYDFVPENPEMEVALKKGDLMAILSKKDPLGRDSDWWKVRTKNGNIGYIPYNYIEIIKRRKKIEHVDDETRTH

T19: Pin3, Q06449
T19 sequence (Q06449 53-122, looked up): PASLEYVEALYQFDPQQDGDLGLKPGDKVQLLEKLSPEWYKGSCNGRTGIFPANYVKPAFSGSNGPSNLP

T20: Sla1-2, P32790
T20 sequence (P32790 60-140, looked up): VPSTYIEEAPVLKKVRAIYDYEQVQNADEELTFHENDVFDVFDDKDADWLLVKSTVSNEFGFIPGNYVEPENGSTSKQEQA

T21: Sla1-3, P32790
T21 sequence (P32790 344-424, looked up): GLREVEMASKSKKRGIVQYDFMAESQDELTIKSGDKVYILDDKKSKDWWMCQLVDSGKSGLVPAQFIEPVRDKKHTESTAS


Key:
Assay in all cases: SPOT array
Abp1, P15891 = biological target: T1, Abp1, P15891; conditions: median of control spots 935
Bbc1, P47068 = biological target: T2, Bbc1, P47068; conditions: median of control spots 796
Bem1-1, P29366 = conditions: median of control spots 4282
Bem1-2, P29366 = conditions: median of control spots 4347
Boi1, P38041 = biological target: T3, Boi1, P38041; conditions: median of control spots 1162
Boi2, P39969 = biological target: T4, Boi2, P39969; conditions: median of control spots 1161
Bud14, P27637 = biological target: T5, Bud14, P27637; conditions: median of control spots 956
Bzz1-1, P38822 = biological target: T6, Bzz1-1, P38822; conditions: median of control spots 4446
Bzz1-2, P38822 = biological target: T7, Bzz1-2, P38822; conditions: median of control spots 4538
Cdc25, P04821 = biological target: T8, Cdc25, P04821; conditions: median of control spots 969
Cyk3, Q07533 = biological target: T9, Cyk3, Q07533; conditions: median of control spots 1451
Fus1, P11710 = biological target: T10, Fus1, P11710; conditions: median of control spots 1200
GST = conditions: median of control spots 978
Hof1, Q05080 = biological target: T11, Hof1, Q05080; conditions: median of control spots 4086
Hse1, P38753 = biological target: T12, Hse1, P38753; conditions: median of control spots 1727
Lsb1, P53281 = biological target: T13, Lsb1, P53281; conditions: median of control spots 388
Lsb3, P43603 = biological target: T14, Lsb3, P43603; conditions: median of control spots 406
Lsb4, P32793 = biological target: T15, Lsb4, P32793; conditions: median of control spots 397
Myo3, P36006 = conditions: median of control spots 468
Myo5, Q04439 = biological target: T16, Myo5, Q04439; conditions: median of control spots 471
Nbp2, Q12163 = biological target: T17, Nbp2, Q12163; conditions: median of control spots 357
Pex13, P80667 = biological target: T18, Pex13, P80667; conditions: median of control spots 1341
Pin3, Q06449 = biological target: T19, Pin3, Q06449; conditions: median of control spots 2171
Rvs167, P39743 = conditions: median of control spots 2707
Sho1, P40073 = conditions: median of control spots 1148
Sla1-2, P32790 = biological target: T20, Sla1-2, P32790; conditions: median of control spots 712
Sla1-3, P32790 = biological target: T21, Sla1-3, P32790; conditions: median of control spots 5475

Sequence of Bem1-1, P29366 (P29366 55-141): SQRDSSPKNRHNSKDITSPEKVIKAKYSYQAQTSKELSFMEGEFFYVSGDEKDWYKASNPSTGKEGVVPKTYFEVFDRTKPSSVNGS
Sequence of Rvs167, P39743 (P39743 419-482): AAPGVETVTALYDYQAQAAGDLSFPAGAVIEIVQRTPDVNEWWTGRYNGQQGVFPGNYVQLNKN
Sequence of Sho1, P40073 (P40073 287-367): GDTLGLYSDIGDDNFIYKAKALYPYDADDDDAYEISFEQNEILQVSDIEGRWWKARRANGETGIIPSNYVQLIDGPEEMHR
Sequence of Bem1-2, P29366 (P29366 139-227): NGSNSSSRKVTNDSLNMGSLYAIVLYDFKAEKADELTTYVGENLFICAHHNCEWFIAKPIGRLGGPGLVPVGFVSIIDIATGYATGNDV

Binder | SPOT intensity (Abp1, P15891) | SPOT intensity (Bbc1, P47068) | SPOT intensity (Bem1-1, P29366) | SPOT intensity (Bem1-2, P29366) | SPOT intensity (Boi1, P38041) | SPOT intensity (Boi2, P39969) | SPOT intensity (Bud14, P27637) | SPOT intensity (Bzz1-1, P38822) | SPOT intensity (Bzz1-2, P38822) | SPOT intensity (Cdc25, P04821) | SPOT intensity (Cyk3, Q07533) | SPOT intensity (Fus1, P11710) | SPOT intensity (GST) | SPOT intensity (Hof1, Q05080) | SPOT intensity (Hse1, P38753) | SPOT intensity (Lsb1, P53281) | SPOT intensity (Lsb3, P43603) | SPOT intensity (Lsb4, P32793) | SPOT intensity (Myo3, P36006) | SPOT intensity (Myo5, Q04439) | also measured
DHPKGPPPPPPPDEK | 0 | 0 | 8 | 0 | 0 | 0 | 1 | 72 | 12 | 6 | 0 | 0 | 0 | 2 | 0 | 0 | 0 | 0 | 431 | 298 | SPOT intensity (Nbp2, Q12163): 1; SPOT intensity (Pex13, P80667): 0; SPOT intensity (Pin3, Q06449): 6; SPOT intensity (Rvs167, P39743): 0; SPOT intensity (Sho1, P40073): 0; SPOT intensity (Sla1-2, P32790): 0; SPOT intensity (Sla1-3, P32790): 12
QLMKNLPKIPLLNDI | 76 | 0 | 5 | 0 | 1 | 1 | 0 | 1 | 7 | 0 | 0 | 0 | 1 | 11 | 1 | 6 | 21 | 41 | 72 | 68 | SPOT intensity (Nbp2, Q12163): 10; SPOT intensity (Pex13, P80667): 162; SPOT intensity (Pin3, Q06449): 78; SPOT intensity (Rvs167, P39743): 0; SPOT intensity (Sho1, P40073): 861; SPOT intensity (Sla1-2, P32790): 5; SPOT intensity (Sla1-3, P32790): 2
RRSKSLPTTPGIRSG | 229 | 19 | 1 | 0 | 3 | 1 | 20 | 0 | 1 | 17 | 0 | 63 | 0 | 0 | 5 | 8 | 1 | 2 | 12 | 0 | SPOT intensity (Nbp2, Q12163): 49; SPOT intensity (Pex13, P80667): 8; SPOT intensity (Pin3, Q06449): 5; SPOT intensity (Rvs167, P39743): 0; SPOT intensity (Sho1, P40073): 1350; SPOT intensity (Sla1-2, P32790): 0; SPOT intensity (Sla1-3, P32790): 26
